Results published in publication PMC6359974.

Molecular target: polymerized MTs of COV362 lysate (taxol-treated) (human (endogenous in COV362)) (UniProt P68363)
Assay: co-sedimentation

UniProt P68363, sequence (P68363 whole entry, chain 1 of 2): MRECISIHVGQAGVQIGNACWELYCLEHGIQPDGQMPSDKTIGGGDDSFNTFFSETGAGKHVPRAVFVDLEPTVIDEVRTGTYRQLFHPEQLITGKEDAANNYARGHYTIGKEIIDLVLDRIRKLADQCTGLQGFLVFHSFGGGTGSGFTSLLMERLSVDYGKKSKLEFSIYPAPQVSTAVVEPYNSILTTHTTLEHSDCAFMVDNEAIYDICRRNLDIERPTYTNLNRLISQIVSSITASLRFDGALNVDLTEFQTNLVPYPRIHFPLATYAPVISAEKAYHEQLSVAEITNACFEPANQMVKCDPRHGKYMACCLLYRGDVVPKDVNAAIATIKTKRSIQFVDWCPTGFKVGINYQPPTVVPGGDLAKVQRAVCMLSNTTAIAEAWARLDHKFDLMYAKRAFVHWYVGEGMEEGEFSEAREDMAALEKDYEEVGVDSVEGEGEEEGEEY
UniProt P68363, sequence (P07437 whole entry, chain 2 of 2, further chain): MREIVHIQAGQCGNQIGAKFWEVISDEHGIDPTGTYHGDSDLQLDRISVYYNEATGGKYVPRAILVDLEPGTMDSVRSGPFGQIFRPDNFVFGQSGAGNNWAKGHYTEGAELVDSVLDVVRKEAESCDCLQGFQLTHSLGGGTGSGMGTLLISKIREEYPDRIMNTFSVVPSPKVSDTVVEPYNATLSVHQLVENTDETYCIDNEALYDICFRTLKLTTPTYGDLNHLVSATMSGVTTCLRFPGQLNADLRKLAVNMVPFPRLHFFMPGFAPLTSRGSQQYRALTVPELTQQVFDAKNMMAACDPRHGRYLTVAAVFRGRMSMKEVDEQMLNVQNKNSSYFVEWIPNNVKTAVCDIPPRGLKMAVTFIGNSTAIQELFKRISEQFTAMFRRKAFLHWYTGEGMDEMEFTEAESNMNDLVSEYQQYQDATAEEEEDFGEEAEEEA

percent of UNC-45A bound to MTs: 100%
B1: UNC-45A (endogenous, COV362 cells) (natural protein)
chain: MTVSGPGTPEPRPATPGASSVEQLRKEGNELFKCGDYGGALAAYTQALGLDATPQDQAVLHRNRAACHLKLEDYDKAETEASKAIEKDGGDVKALYRRSQALEKLGRLDQAVLDLQRCVSLEPKNKVFQEALRNIGGQIQEKVRYMSSTDAKVEQMFQILLDPEEKGTEKKQKASQNLVVLAREDAGAEKIFRSNGVQLLQRLLDMGETDLMLAALRTLVGICSEHQSRTVATLSILGTRRVVSILGVESQAVSLAACHLLQVMFDALKEGVKKGFRGKEGAIIVDPARELKVLISNLLDLLTEVGVSGQGRDNALTLLIKAVPRKSLKDPNNSLTLWVIDQGLKKILEVGGSLQDPPGELAVTANSRMSASILLSKLFDDLKCDAERENFHRLCENYIKSWFEGQGLAGKLRAIQTVSCLLQGPCDAGNRALELSGVMESVIALCASEQEEEQLVAVEALIHAAGKAKRASFITANGVSLLKDLYKCSEKDSIRIRALVGLCKLGSAGGTDFSMKQFAEGSTLKLAKQCRKWLCNDQIDAGTRRWAVEGLAYLTFDADVKEEFVEDAAALKALFQLSRLEERSVLFAVASALVNCTNSYDYEEPDPKMVELAKYAKQHVPEQHPKDKPSFVRARVKKLLAAGVVSAMVCMVKTESPVLTSSCRELLSRVFLALVEEVEDRGTVVAQGGGRALIPLALEGTDVGQTKAAQALAKLTITSNPEMTFPGERIYEVVRPLVSLLHLNCSGLQNFEALMALTNLAGISERLRQKILKEKAVPMIEGYMFEEHEMIRRAATECMCNLAMSKEVQDLFEAQGNDRLKLLVLYSGEDDELLQRAAAGGLAMLTSMRPTLCSRIPQVTTHWLEILQALLLSSNQELQHRGAVVVLNMVEASREIASTLMESEMMEILSVLAKGDHSPVTRAAAACLDKAVEYGLIQPNQDGE
